Residue numbers refer to the chain shown, from its start. Numbers in names are those of the source. Each block holds one binder with its values, some of them ahead of it.
How the values were obtained:
[1] = molecular target: T1, rHuman IGF-1 sR, CF (R&D Systems Cat#391-GR) (human, UniProt P08069 31-932); assay: ECL Multispot (MSD) assay, antigen spotted on plate, 10 nM Fab; blank spot of this row 472
T1 construct: Bought soluble receptor; The column head prints only 'IGF-1'; also called insulin-like growth factor-1 soluble receptor

[2] = molecular target: T2, rHuman P-Cadherin/Fc Chimera, CF (R&D Systems Cat#861-PC) (human, UniProt P22223 108-654); assay: as above
T2 construct: Bought reagent; Fc part of the bought chimera not given

[3] = molecular target: T3, rHuman Erythropoietin R/Fc Chimera, CF (R&D Systems Cat#963-ER) (human, UniProt P19235 25-250); assay: as above
T3 construct: Bought reagent; also called EPO R; EPO R/Fc; Fc part of the bought chimera not given
T3 sequence (looked up): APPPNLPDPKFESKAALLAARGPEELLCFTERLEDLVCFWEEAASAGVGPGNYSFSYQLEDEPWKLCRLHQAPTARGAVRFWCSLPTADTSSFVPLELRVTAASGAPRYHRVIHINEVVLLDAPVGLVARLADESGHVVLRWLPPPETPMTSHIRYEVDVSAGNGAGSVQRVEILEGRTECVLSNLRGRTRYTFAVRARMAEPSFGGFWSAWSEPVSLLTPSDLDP

[4] = molecular target: T4, rHuman ErbB2/Fc Chimera, CF (R&D Systems Cat#1129-ER) (human, UniProt P04626 23-652); assay: as above
T4 construct: Bought reagent; also called human epidermal growth factor 2 receptor; Fc part of the bought chimera not given

[5] = molecular target: T5, rHuman EGF R/Fc Chimera, CF (R&D Systems Cat#344-ER) (human, UniProt P00533 25-645); assay: as above
T5 construct: Bought reagent; also called epidermal growth factor receptor; Fc part of the bought chimera not given

[6] = molecular target: T6, rHuman HGF R/c-MET/Fc Chimera, CF (R&D Systems Cat#358-MT/CF) (human, UniProt P08581 25-932); assay: as above
T6 construct: Bought reagent; also called HGF R/Fc; hepatocyte growth factor receptor; Fc part of the bought chimera not given

[7] = molecular target: T7, rHuman Notch-1/Fc Chimera, CF (R&D Systems Cat#3647-TK) (human, UniProt P46531 19-526); assay: as above
T7 construct: Bought reagent; Fc part of the bought chimera not given

[8] = molecular target: T8, rHuman CD44/Fc Chimera, CF (R&D Systems Cat#3660-CD) (human, UniProt P16070 21-220); assay: as above
T8 construct: Bought reagent; Fc part of the bought chimera not given

[9] = molecular target: T9, rHuman Notch-1/Fc Chimera, CF (R&D Systems Cat#3647-TK) (human, UniProt P46531 19-526); assay: Multispot ECL (MSD) titration; antigen spotted on plate; Fab 58.1 nM; blank spot 225
T9 construct: Bought Fc chimera; Fc part of the bought chimera not given

[10] = molecular target: T10, rHuman ErbB2/Fc Chimera, CF (R&D Systems Cat#1129-ER) (human, UniProt P04626 23-652); assay: MSD Multispot ECL, antigen spotted on plate, Fab 2.0 nM; blank spot 316
T10 construct: Bought reagent; also called human epidermal growth factor 2 receptor; Fc part of the bought chimera not given

[11] = molecular target: T11, rHuman Erythropoietin R/Fc Chimera, CF (R&D Systems Cat#963-ER) (human, UniProt P19235 25-250); assay: ECL multispot (MSD) assay, spotted antigen; Fab 200.00 (head prints uM)
T11 construct: Bought recombinant protein; also called EPO R; EPO R/Fc; Fc part of the bought chimera not given
T11 sequence (looked up): T3 sequence (looked up)

[12] = molecular target: T12, Recombinant Human DLL4 (R&D Systems Cat#1506-D4/CF) (human, UniProt Q9NR61 27-524); assay: as above
T12 construct: Bought recombinant protein; also called delta-like protein 4

[13] = molecular target: T13, rHuman ErbB2/Fc Chimera, CF (R&D Systems Cat#1129-ER) (human, UniProt P04626 23-652); assay: as above
T13 construct: Bought recombinant protein; Fc part of the bought chimera not given

[14] = molecular target: T14, rHuman EGF R/Fc Chimera, CF (R&D Systems Cat#344-ER) (human, UniProt P00533 25-645); assay: as above
T14 construct: Bought recombinant protein; Fc part of the bought chimera not given

[15] = molecular target: T15, rHuman HGF R/c-MET/Fc Chimera, CF (R&D Systems Cat#358-MT/CF) (human, UniProt P08581 25-932); assay: as above
T15 construct: Bought recombinant protein; also called HGF R/Fc; Fc part of the bought chimera not given

[16] = molecular target: T16, rHuman Notch-1/Fc Chimera, CF (R&D Systems Cat#3647-TK) (human, UniProt P46531 19-526); assay: as above
T16 construct: Bought recombinant protein; Fc part of the bought chimera not given

[17] = molecular target: T17, rHuman CD44/Fc Chimera, CF (R&D Systems Cat#3660-CD) (human, UniProt P16070 21-220); assay: as above
T17 construct: Bought recombinant protein; Fc part of the bought chimera not given

[18] = molecular target: T18, rHuman IGF-1 sR, CF (R&D Systems Cat#391-GR) (human, UniProt P08069 31-932); assay: as above
T18 construct: Bought soluble receptor; The column head prints only 'IGF-1'; also called insulin-like growth factor-1 soluble receptor

[19] = molecular target: T19, rHuman P-Cadherin/Fc Chimera, CF (R&D Systems Cat#861-PC) (human, UniProt P22223 108-654); assay: as above
T19 construct: Bought recombinant protein; Fc part of the bought chimera not given

- ECL signal [1]: 434
- ECL signal [2]: 433
- ECL signal [3]: 480
- ECL signal [4]: 391
- ECL signal [5]: 428
- ECL signal [6]: 426
- ECL signal [7]: 299
- ECL signal [8]: 400
B1: Fab VH1-46_IGHD6-6*01_IGHJ1*01 S102A/S103P/S104F (APF) & L6_IGKJ1*01 (Fab, V domains shown)
VH: QVQLVQSGAEVKKPGASVKVSCKASGYTFTSYYMHWVRQAPGQGLEWMGIINPSGGSTSYAQKFQGRVTMTRDTSTSTVYMELSSLRSEDTAVYYCAREEYAPFSAEYFQHWGQGTLVTVSS
VL: not shown
notes: Tested as a Fab made in E. coli; also called H:APF & L:wt; APF triple mutant

- ECL signal [9]: 388
B2: Fab VH1-46_IGHD6-13*01_IGHJ4*01 & O1_IGKJ1*01 (Fab, V domains shown)
VH: B1 VH with E100G, A102S, P103S, F104S, S105W, A106Y, E107D, Q110D, H111Y
VL: DIVMTQTPLSLPVTPGEPASISCRSSQSLLDSDDGNTYLDWYLQKPGQSPQLLIYTLSYRASGVPDRFSGSGSGTDFTLKISRVEAEDVGVYYCMQRIEFPSWTFGQGTKVEIKR
notes: Germline library Fab expressed in E. coli; VH was cloned into Plasmid A (CH1 constant region, His6 and Flag tags); The kappa VL was cloned into Plasmid C (kappa CL)

- ECL signal [10]: 382
B3: Fab VH1-8_IGHD2-2*01_IGHJ6*01 & L12_IGKJ1*01 (Fab, V domains shown)
VH: QVQLVQSGAEVKKPGASVKVSCKASGYTFTSYDINWVRQATGQGLEWMGWMNPNSGNTGYAQKFQGRVTMTRNTSISTAYMELSSLRSEDTAVYYCARGGYCSSTSCYADYYYYYGMDVWGQGTTVTVSS
VL: not shown

- ECL signal/noise ratio [11]: 1.7
- ECL signal/noise ratio [12]: 76.9
- ECL signal/noise ratio [13]: 1.7
- ECL signal/noise ratio [14]: 1.6
- ECL signal/noise ratio [15]: 1.7
- ECL signal/noise ratio [16]: 1.7
- ECL signal/noise ratio [17]: 1.4
- ECL signal/noise ratio [18]: 1.5
- ECL signal/noise ratio [19]: 2
B4: Fab VH5-51_IGHD5-18*01>3_IGHJ4*01 G100K/G104T & V3-4_IGLJ1*01 (Fab, V domains shown)
VH: EVQLVQSGAEVKKPGESLKISCKGSGYSFTSYWIGWVRQMPGKGLEWMGIIYPGDSDTRYSPSFQGQVTISADKSISTAYLQWSSLKASDTAMYYCARRKYSYTYDYFDYWGQGTLVTVSS
VL: QTVVTQEPSFSVSPGGTVTLTCGLSSGSVSTSYYPSWYQQTPGQAPRTLIYSTNTRSSGVPDRFSGSILGNKAALTITGAQADDESDYYCVLYMGSGISYVFGTGTKVTVL
notes: Tested as a Fab; The constant parts are the same as for the parent Fab (CH1 with His6/Flag tags, lambda CL); also called KT double mutant; H:KT

Reference: patent US20120316071A1 (published 2012)
